Experimental findings from US6949624 are described below.

In test [1] the target is human nuclear receptor co-repressor (HuN-CoR), 2,440 amino-acid polypeptide (human) (UniProt O75376). As to the kind of experiment: cell-based or functional assay.
In test [2] the target is AML1/ETO chimeric fusion protein (UniProt Q01196). As to the kind of experiment: cell-based or functional assay.
UniProt Q01196, sequence (Q01196 other isoform, or with tags, fused parts or gaps mutant limits assumed): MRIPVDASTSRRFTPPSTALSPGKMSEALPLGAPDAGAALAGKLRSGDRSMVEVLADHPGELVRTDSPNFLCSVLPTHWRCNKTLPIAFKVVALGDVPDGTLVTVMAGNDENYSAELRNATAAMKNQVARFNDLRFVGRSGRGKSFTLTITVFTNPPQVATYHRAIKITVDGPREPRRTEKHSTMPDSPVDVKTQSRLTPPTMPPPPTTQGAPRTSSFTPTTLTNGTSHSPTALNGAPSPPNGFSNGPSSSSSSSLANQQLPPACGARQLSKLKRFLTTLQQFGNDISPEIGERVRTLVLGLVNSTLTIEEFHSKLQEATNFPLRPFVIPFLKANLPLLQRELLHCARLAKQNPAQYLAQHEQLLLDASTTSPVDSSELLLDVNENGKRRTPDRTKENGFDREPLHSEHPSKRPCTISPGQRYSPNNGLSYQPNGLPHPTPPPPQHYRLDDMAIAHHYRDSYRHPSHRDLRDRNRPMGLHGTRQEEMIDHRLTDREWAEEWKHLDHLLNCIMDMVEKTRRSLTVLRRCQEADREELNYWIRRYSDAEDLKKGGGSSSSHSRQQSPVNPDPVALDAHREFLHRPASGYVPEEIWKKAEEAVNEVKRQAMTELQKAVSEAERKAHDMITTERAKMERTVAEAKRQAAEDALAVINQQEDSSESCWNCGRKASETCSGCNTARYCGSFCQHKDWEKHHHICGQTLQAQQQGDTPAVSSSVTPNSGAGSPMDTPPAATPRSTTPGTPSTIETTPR

UniProt O75376, sequence (O75376 other isoform, or with tags, fused parts or gaps limits assumed): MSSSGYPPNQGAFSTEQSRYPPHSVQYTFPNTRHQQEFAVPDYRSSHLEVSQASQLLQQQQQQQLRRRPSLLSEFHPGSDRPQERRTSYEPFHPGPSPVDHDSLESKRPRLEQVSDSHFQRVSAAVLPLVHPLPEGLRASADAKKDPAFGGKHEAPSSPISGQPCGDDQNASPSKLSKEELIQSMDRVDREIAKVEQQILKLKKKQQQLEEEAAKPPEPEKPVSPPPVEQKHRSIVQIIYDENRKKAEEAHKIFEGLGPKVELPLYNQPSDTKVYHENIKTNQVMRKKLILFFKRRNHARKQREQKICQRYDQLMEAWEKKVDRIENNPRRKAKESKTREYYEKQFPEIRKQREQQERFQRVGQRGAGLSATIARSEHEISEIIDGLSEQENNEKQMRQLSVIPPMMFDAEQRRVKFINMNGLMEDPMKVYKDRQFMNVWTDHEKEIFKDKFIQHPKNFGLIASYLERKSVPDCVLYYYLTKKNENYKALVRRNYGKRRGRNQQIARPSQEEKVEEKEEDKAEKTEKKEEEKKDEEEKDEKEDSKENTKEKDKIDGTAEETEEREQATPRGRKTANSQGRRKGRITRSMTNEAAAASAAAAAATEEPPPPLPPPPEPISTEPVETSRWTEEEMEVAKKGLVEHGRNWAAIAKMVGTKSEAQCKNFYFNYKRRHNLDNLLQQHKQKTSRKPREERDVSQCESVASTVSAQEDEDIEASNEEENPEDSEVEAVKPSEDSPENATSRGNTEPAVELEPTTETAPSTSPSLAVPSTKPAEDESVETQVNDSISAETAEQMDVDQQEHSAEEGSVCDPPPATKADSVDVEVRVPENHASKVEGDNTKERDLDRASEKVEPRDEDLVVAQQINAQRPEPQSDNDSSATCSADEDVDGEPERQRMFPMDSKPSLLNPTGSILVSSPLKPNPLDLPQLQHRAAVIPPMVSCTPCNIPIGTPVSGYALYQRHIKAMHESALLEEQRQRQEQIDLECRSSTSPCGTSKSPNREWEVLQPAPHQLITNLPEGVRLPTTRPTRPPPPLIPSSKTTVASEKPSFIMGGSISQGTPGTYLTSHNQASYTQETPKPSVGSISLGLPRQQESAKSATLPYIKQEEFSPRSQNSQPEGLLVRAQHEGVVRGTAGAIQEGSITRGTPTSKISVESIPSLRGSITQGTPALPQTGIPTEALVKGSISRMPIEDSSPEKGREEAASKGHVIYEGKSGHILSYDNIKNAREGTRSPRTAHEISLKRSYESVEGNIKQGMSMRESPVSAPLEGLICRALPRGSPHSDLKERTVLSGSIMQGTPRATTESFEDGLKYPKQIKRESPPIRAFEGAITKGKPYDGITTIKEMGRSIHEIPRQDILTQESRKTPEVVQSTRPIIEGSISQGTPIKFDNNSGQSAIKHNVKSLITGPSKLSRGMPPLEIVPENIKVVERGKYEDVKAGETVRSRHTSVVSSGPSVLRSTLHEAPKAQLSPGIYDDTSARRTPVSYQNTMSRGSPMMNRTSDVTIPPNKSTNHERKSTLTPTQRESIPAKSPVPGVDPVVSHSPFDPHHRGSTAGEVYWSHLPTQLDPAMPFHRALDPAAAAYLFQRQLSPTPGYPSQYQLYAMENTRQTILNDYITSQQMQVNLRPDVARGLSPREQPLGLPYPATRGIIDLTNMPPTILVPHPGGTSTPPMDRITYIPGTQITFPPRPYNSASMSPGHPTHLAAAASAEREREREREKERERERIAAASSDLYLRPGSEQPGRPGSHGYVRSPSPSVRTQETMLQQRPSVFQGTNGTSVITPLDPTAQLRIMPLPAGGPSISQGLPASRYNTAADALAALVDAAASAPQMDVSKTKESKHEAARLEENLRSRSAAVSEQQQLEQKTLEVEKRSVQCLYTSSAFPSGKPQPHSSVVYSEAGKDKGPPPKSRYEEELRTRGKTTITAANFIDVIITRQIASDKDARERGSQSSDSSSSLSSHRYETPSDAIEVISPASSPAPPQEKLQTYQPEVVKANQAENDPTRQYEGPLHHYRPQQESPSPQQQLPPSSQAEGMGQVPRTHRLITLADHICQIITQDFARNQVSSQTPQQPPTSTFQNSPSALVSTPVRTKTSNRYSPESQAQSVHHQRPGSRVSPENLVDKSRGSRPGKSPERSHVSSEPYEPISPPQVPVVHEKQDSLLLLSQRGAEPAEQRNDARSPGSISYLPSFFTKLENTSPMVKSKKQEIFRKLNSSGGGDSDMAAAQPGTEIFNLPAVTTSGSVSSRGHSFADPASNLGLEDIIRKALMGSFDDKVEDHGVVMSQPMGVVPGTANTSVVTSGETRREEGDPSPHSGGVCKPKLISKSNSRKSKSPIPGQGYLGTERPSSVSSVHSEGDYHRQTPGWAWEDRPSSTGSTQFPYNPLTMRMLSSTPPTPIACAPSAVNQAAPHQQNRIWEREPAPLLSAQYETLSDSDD

In test [1], “zinc-finger domains of ETO (ETOZn) fused with enhanced green fluorescent protein (from UniProt Q06455 510-556)” gave a transduced Kasumi-1 cells positive for CD13 expression (flow cytometry) of 89% and a transduced Kasumi-1 cells positive for annexin staining (flow cytometry) of 97%.

For the substance “ETO-interacting domain of N-CoR (NCoREID) fused with enhanced green fluorescent protein”, in test [2], the transduced Kasumi-1 cells positive for CD13 expression (flow cytometry) was 87% and the transduced Kasumi-1 cells positive for annexin staining (flow cytometry) came out at 97%.
